Experimental data as given in patent US20190071490A1, “Preventing Post-Ictal Headaches” (Beth Israel Deaconess Medical Center, Inc., priority 2017, published 2019).
pKd: −log10 of the molar value.

How the values were obtained:
[1] = molecular target: human α-CGRP K35A (19-37) (human); experiment: Biacore SPR, 25 °C, Fab flowed across peptide on SA chip; KD of alanine mutant relative to parent fragment 19-37
[2] = molecular target: human α-CGRP fragment 25-37 (human); experiment: Biacore, 25°C, Fab over biotinylated fragment (FIG. 1)
[3] = molecular target: human α-CGRP N31A (25-37) (human); experiment: Biacore SPR, 25 °C, Fab flowed across peptide on SA chip; KD of alanine mutant relative to parent fragment 25-37
[4] = molecular target: human α-CGRP F27A (25-37) (human); experiment: as above
[5] = molecular target: human α-CGRP S34A (25-37) (human); experiment: as above
[6] = molecular target: human α-CGRP V32A (25-37) (human); experiment: as above
[7] = molecular target: human α-CGRP V28A (25-37) (human); experiment: as above
[8] = molecular target: human α-CGRP G33A (25-37) (human); experiment: as above
[9] = molecular target: human α-CGRP P29A (25-37) (human); experiment: as above
[10] = molecular target: human α-CGRP T30A (25-37) (human); experiment: as above
rat α-CGRP (1-37) (rat) = experiment: Biacore, 37°C, Fab over biotinylated CGRP on SA chip
Chain of rat α-CGRP (1-37) (rat) (peptide, as listed by the source): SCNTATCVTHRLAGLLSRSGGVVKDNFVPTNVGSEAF

[11] = molecular target: human α-CGRP 1-37 (WT) (human); experiment: as above
Chain of human α-CGRP 1-37 (WT) (human) (peptide, as listed by the source): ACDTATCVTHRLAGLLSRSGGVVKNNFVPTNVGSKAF

[12] = molecular target: human α-CGRP 1-37 (WT) (human); experiment: Biacore, 25°C, Fab over biotinylated CGRP on SA chip
[13] = molecular target: human α-CGRP 1-37 (WT) (human); experiment: Biacore SPR, 25 °C, Fab flowed across N-biotinylated peptide on SA chip
[14] = molecular target: human α-CGRP fragment 19-37 (human); experiment: Biacore SPR, 25 °C, Fab flowed across N-biotinylated peptide on SA chip; mean ± SD of two independent measurements on different chips
[15] = molecular target: human α-CGRP fragment 25-37 (human); experiment: as above

anti-CGRP antibody 4901, Fab fragment was tested, and the KD(mutant/parent) [1] was 0.3, the fold lower affinity than to full length human α-CGRP [2] was 6 fold and the KD(mutant/parent) [3] was 0.3. For the same substance, the KD(mutant/parent) [4] was 0.8, the KD(mutant/parent) [5] was 0.8 and the KD(mutant/parent) [6] was 0.9. It also gave a KD(mutant/parent) [7] of 0.8, a KD(mutant/parent) [8] of 1.3 and a KD(mutant/parent) [9] of 0.2. The KD(mutant/parent) [10] was 0.2, the pKd (rat α-CGRP (1-37) (rat)) was 8.47 and the pKd [11] was 6.86. It also gave a pKd [12] of 7.21, a pKd [13] of 7.22 and a pKd [14] of 7.28. It also gave a pKd [15] of 6.53.
